Earlier results, collected in US20260297164A1, “ANTI-FIBROTIC PEPTIDES AND USES THEREOF” (Deackt, Inc., priority 2021, published 2026).

Tested on: CD148
Details: extracellular proteins; cited from earlier work

B1: syndecan-2: known extracellular protein that can bind to CD148 (protein, UniProt P34741 19-201, looked up)
Syndecan-2: ESRAELTSDKDMYLDNSSIEEASGVYPIDDDDYASASGSGADEDVESPELTTSRPLPKILLTSAAPKVETTTLNIQNKIPAQTKSPEETDKEKVHLSDSERKMDPAEEDTNVYTEKHSDSLFKRTEVLAAVIAGGVIGFLFAIFLILLLVYRMRKKDEGSYDLGERKPSSAAYQKAPTKEFYA
binding to CD148 and activation of PTP activity: can bind to CD148 and activate PTP activity
